We go through four molecules from patent US20230183354A1 (IMMIOS HOLDING B V, published 2023).

Assay [1] addresses human CD103 (integrin Alpha-E) / human integrin Beta-7 heterodimer on cells (human) (UniProt P38570). Briefly: flow cytometry, tumor digest OC433, non-labeled control Fab with secondary anti-Fab reagent (APC); secondary antibody alone Q3 2,44.
Assay [2] has the same target. Briefly: flow cytometry, tumor digest OC433, non-labeled control Fab with secondary anti-Fab reagent (APC); secondary antibody alone Q2 4,65. On the technique in general: In flow cytometry, cells or beads pass a laser one at a time.
Assay [3] shares this target. In words: flow cytometry competition on CD103+CD8+ T cells; pre-incubation with unlabeled 07A; table n=2.
Assay [4] shares this target. Briefly: flow cytometry competition on CD103+CD8+ T cells; pre-incubation with unlabeled 06A; table n=2.
Assay [5] has the same target. In words: flow cytometry, tumor digest OC433, CD3 positive cells; Control panel Q3 2,12.
The target is the same in assay [6]. Briefly: flow cytometry competition on CD103+CD8+ T cells; pre-incubation with unlabeled BERACT; table n=2.
Assay [7] has the same target. In words: flow cytometry competition on CD103+CD8+ T cells; pre-incubation with unlabeled BERACT; table n=1.
For assay [8] the target is unchanged. Briefly: flow cytometry competition on CD103+CD8+ T cells; pre-incubation with unlabeled 01A; table n=2.
The target is the same in assay [9]. In words: flow cytometry competition on CD103+CD8+ T cells; pre-incubation with unlabeled 03A; table n=2.
The target is the same in assay [10]. In words: flow cytometry competition on CD103+CD8+ T cells; pre-incubation with unlabeled 02A; table n=1.
Assay [11] shares this target. Briefly: flow cytometry competition on CD103+CD8+ T cells; pre-incubation with unlabeled 05A; table n=2.
For assay [12] the target is unchanged. In words: flow cytometry competition on CD103+CD8+ T cells; pre-incubation with unlabeled IgG (f2); table n=1.
For assay [13] the target is unchanged. Briefly: flow cytometry competition on CD103+CD8+ T cells; pre-incubation with unlabeled MCA708 (f4); table n=2.
Assay [14] shares this target. In words: flow cytometry competition on CD103+CD8+ T cells; pre-incubation with unlabeled 05A; table n=1.
Assay [15] shares this target. In words: flow cytometry competition on CD103+CD8+ T cells; pre-incubation with unlabeled 01A; table n=1.
Assay [16] has the same target. In words: flow cytometry competition on CD103+CD8+ T cells; pre-incubation with unlabeled 03A; table n=1.
Assay [17] shares this target. In words: flow cytometry competition on CD103+CD8+ T cells; pre-incubation with unlabeled MCA708 (f4); table n=1.
Assay [18] shares this target. In words: flow cytometry, tumor digest OC433, CD3 positive cells; Control panel Q2 0,53.
Assay [19] has the same target. In words: flow cytometry competition on CD103+CD8+ T cells; pre-incubation with unlabeled 07A; table n=1.
For assay [20] the target is unchanged. Briefly: flow cytometry competition on CD103+CD8+ T cells; pre-incubation with unlabeled 06A; table n=1.
For assay [21] the target is unchanged. Briefly: flow cytometry competition on CD103+CD8+ T cells; pre-incubation with unlabeled 02A; table n=2.
Assay [22] has the same target. In words: flow cytometry competition on CD103+CD8+ T cells; pre-incubation with unlabeled IgG (f2); table n=2.
Assay [23] shares this target. Briefly: flow cytometry, tumor digest OC433, AF647-conjugated control Fab, direct read-out.
For assay [24], the target named is T1, murine CD103 (mouse, UniProt Q60677 20-1167).
T1 construct: whole, on cells; also called murine CD103+ T cells; mouse CD103
T1 sequence (looked up): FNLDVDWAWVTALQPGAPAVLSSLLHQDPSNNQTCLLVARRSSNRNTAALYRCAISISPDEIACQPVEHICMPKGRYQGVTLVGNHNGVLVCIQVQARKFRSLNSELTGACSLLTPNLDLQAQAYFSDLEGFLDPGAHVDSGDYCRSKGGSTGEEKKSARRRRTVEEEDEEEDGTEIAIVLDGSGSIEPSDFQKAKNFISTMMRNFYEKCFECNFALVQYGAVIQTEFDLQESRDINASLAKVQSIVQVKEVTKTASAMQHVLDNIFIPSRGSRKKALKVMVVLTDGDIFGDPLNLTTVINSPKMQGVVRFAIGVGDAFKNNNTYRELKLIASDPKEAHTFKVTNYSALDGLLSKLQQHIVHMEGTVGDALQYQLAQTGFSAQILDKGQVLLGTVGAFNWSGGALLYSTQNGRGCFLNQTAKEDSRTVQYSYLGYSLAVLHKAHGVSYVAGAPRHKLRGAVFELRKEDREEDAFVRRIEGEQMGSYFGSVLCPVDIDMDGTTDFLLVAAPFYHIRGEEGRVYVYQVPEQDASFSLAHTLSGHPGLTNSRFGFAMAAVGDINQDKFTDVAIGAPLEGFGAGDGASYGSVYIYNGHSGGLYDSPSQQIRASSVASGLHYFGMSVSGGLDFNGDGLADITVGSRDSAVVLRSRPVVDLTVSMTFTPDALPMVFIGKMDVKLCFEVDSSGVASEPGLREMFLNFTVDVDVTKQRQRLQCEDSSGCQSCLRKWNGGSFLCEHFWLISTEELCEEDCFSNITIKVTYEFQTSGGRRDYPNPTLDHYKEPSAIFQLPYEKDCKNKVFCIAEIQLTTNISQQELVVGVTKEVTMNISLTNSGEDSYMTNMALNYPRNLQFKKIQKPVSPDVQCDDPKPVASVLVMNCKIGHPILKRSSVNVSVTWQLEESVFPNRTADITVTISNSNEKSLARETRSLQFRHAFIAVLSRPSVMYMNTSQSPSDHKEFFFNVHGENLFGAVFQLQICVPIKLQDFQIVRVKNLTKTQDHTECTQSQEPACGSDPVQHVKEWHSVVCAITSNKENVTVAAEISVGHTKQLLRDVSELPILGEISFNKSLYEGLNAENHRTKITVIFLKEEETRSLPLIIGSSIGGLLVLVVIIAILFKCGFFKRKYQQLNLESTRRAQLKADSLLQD
Briefly: flow cytometry on mouse spleen and thymus cells. The method, then:
Additional aliquots were stained with relevant isotype controls or as fluorescence minus one controls (“FMO” controls are cells stained with all the fluorophores minus one fluorophore; the relevant isotype controls contain either a directly labeled unspecific isotype antibody or an unspecific isotype antibody combined with secondary detection reagent). Percentage binding of fluorescently labeled mAbs was determined using flow cytometry. Maximum binding was set at 100%. […] Data analysis was performed with FlowJo v10 (Tree Star) and surface receptor levels were expressed as mean fluorescent intensity (MFI).

Assay [25] concerns the target T2, human CD103 (integrin Alpha-E) / human integrin Beta-7 heterodimer on cells (human, UniProt P38570 19-1179; P26010 20-798).
T2 construct: The same id is used for native CD103 on human CD103+CD8+ T cells (tumor digests, TGF-beta induced T cells); the assay field tells which cells; also called hCD103/hBeta7; CHO.K1-hCD103/hBeta7
In words: cell ELISA on CHO.K1-humanCD103/beta7 cells, abs 450-610. For orientation: ELISA stands for enzyme-linked immunosorbent assay.

Assay [26] concerns the target T3, human integrin Alpha-4 / human integrin Beta-7 heterodimer on CHO-K1 cells (human, UniProt P13612 34-1032; P26010 20-798).
T3 construct: Used as the control for reactivity with hBeta7; also called hAlpha4/hBeta7; CHO.K1-hAlpha4/hBeta7
Briefly: cell ELISA on CHO.K1-humanAlpha4/beta7 cells, abs 450-610.

Consider hFab isotype, for which the % of cells in Q3 (CD8- CD103+) in assay [1] was found to be 3.71%. The % of cells in Q2 (CD8+ CD103+) in [2] was 4.64%.

Turning to CD103 (Ber-ACT8) antibody (BD), the % binding of the fluorescently labeled mAb (IgG pre-incubation = 100) in [3] was found to be 29.2%; in assay [4] it was 103%; in assay [6], 3.5%; in assay [7] it was 1.9%; in [8], 2.3%; in assay [9], 101%. The % binding of the fluorescently labeled mAb (IgG pre-incubation = 100) in assay [10] was 1.4%; in assay [11], 60.6%; in assay [12] it was 100%; in assay [13] it was 109%; in [14], 50.9%; in assay [15], 0.9%. The % binding of the fluorescently labeled mAb (IgG pre-incubation = 100) in assay [16] stood at 97%; in [17], 115%; in assay [19], 27.2%; in assay [20], 96.6%; in [21] it was 2.9%; in assay [22] it was 100%. The % of CD3 positive cells in Q3 (CD8- CD103+) in [5] stood at 7.75%. Moreover, the % of CD3 positive cells in Q2 (CD8+ CD103+) in assay [18] is 13.4%.

As for Alexa647.mFab control, in [23], the % of cells in Q2 (CD8+ CD103+) was 2.58% and the % of cells in Q3 (CD8- CD103+) came out at 1.29%.

B1: hCD103.02A (antibody, V domains shown)
VH: EVQLQESGPSLVKPSQTLSLTCSVTGDSITSGYWNWIRKFPGNKLEYMGYITYSGSTYYNPSLKSRISITRDTSKNQYYLQFNSVTTEDTATYYCARGYYGSDAMDYWGQGTSVTVSS
VL: DIVMTQSHKFMSTSVGDRVSITCKASQDVSTAVAWYQQKPGQSPKLLIYSASYRYTGVPDRFTGSGSGTDFTFTISSVQAEDLAVYYCQQHYSPPWTFGGGTKLEIK
notes: also called clone 02A
Turning to B1, the binding result in [24] and in [26] was “no binding” throughout. The EC50 (read off the curve) – broadly, the concentration at which the effect is half-maximal – in assay [25] is approximately 10 ng/mL.
